{
  "source": "patent US9193770",
  "molecular_target": "TLR5 of the luciferase reporter assay",
  "assay": "cell-based or functional assay",
  "data": [
    {"substance": "native H7 flagellin purified from E. coli O157:H7 (ligand)", "values": [
      {"measurement": "luciferase reporter assay, TLR5 activity", "value": 0.1, "unit": "ng/mL"}
    ]}
  ]
}
